PMC11098746 (2024)

Tests used:
Assay in all cases: AVEXIS screen signal:noise (double-corrected)
ADP390 = molecular target: ADP390
ADP315 = molecular target: T1, ADP315
T1 chain: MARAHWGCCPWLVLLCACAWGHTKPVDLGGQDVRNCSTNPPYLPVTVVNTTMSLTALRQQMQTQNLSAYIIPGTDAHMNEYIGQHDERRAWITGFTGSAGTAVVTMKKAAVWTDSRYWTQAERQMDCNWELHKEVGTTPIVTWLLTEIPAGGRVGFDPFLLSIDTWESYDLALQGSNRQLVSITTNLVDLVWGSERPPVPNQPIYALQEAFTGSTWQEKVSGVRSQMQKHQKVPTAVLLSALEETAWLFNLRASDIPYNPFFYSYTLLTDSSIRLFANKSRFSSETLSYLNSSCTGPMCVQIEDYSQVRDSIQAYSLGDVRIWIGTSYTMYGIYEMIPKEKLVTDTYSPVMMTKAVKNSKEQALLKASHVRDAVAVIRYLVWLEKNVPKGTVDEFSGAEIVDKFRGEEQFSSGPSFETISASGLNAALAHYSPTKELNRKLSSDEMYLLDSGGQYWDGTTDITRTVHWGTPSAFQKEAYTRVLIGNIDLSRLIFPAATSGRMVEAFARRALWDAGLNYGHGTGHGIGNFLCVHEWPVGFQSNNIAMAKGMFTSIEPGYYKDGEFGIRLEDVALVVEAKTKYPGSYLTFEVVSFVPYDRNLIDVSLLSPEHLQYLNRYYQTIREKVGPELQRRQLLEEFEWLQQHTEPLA

ADP323 = molecular target: ADP323
ADP366 = molecular target: T2, ADP366
T2 chain: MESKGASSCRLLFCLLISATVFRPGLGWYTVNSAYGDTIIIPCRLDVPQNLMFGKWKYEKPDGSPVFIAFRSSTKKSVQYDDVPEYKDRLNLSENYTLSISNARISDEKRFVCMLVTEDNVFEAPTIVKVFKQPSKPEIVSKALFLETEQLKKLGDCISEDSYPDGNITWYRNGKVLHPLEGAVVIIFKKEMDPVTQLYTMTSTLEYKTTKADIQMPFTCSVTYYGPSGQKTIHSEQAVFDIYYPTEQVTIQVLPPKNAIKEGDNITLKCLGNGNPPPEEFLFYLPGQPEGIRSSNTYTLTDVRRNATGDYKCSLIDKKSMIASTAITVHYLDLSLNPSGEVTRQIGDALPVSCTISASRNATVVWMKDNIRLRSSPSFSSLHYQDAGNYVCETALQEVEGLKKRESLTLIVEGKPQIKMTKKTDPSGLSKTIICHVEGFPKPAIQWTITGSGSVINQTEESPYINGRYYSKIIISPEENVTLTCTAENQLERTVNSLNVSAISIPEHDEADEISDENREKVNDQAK

ADP368 = molecular target: T3, ADP368
T3 chain: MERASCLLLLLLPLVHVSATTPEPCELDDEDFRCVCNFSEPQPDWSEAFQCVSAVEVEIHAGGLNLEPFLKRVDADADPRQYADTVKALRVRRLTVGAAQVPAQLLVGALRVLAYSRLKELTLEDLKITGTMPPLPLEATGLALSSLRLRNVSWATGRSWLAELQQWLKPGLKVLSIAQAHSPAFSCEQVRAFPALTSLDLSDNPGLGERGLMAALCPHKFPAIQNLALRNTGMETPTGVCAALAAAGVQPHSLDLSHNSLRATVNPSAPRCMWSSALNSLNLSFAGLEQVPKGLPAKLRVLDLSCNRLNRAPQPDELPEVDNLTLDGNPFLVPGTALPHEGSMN

ADP158 = molecular target: ADP158
ADP103 = molecular target: T4, ADP103
T4 chain: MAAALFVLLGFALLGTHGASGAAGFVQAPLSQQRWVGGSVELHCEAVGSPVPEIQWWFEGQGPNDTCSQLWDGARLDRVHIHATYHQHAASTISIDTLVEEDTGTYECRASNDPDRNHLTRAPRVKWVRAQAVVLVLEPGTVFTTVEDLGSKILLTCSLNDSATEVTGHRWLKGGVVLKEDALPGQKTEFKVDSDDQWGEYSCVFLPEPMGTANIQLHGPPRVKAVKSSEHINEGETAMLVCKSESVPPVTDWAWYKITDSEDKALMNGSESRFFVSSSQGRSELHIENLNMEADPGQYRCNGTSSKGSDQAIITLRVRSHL

ADP144 = molecular target: T5, ADP144
T5 chain: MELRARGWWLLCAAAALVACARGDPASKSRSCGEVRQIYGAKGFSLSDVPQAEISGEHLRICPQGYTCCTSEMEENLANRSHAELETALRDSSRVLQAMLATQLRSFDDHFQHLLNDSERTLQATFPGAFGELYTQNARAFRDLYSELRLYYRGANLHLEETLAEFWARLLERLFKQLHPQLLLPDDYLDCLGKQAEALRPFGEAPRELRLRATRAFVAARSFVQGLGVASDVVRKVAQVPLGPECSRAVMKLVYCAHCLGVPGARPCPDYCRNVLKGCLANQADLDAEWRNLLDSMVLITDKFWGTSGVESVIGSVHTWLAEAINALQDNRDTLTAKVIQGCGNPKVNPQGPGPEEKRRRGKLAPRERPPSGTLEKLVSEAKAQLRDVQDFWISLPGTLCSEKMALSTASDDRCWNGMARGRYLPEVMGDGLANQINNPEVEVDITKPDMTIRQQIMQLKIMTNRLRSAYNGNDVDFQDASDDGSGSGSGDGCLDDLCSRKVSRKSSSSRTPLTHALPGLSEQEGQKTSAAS

B1: ADP253 (protein)
chain: ANAFYVDNGQEMLIKEKEHYSSDSEHHKEESASIGNLNVFFPAENYHFSTYMGFDRRSFLPSNEIELEKMIGANFANEVKNYCSRQNVAQKIGDYLNIAFEYSRALEELRSEMILDFNKRKHLTNNADDTILHMIENAEKRKNDPNYKEAYENKDYANNANIFMNEYSNPLSTKYNKILKEYLCHLFVNNPGTKPLERLYYNSLALGELVEPIRNKFKSLASSTIDFNYEIHMASASNIYLLAHFLVLSLAYLSYNEYFTTGTKSFYSLPTILTANSDNSFFMLNEMCNIHYNPNKNFKKDITFIPIESRPKRTTTFYGERRLTCDLLELVLNAIMLININEINNVFSNNNVDGYENSLSFSHNAIRIFSKVCPKINNDNVLKCEFEESSLYNPKIIKNDASEKSSQKNLKKAFDLLRTYAEIEGHSAEGSTSPYYVSLILDDMKYNDFYKYTLWYEPRELIYGDIRGMQMKKKKKTKYIYNDFMKKSTQLKKKLIKNDLKYNLKSKGLVFLYAMIDKYGSILNKAQKAKVQFLNSASSIRYYLYLNKVIFKSAKTYLDIMKRVLEELQTSTNTPLKFLVRGNYIENINNIARNDNMFYANLFVLTALSRRDPVKDYYNDKRKMLSATLAEKFANSASMLIPHKLRKLVVSMKKGLLKKKLLTSLAKVKLLQHIPAHMLENIASSIRFTTHTIATMQIIQNAKYMSKHNFAQYDSKGMLARQIFTKGGFAEYADNLMAKWFSKGFEEYKREQIENFKMENSIDSELKDSEREDENDASEESAKKKLQDLQLEEREKMKKENSLLFNQADKWDQFINKELVRALGLWLEFNDNPANAASFVYKVVEDSKHLLENNIDNNIIFSRTVKPTKQTAFRRFFNKILSLGNMLLRKPSFRVEHALWFGATIDIKKAFILLEKVSELHKMLNNQDESWLINEAFIEIVDHVVDLSTYKHVREPFGVARNPGMMAINPKYAELSHENRLRELQNSMCADHCSSVWKVISSFALHHLKNPDSLHTYESKFSKNSFGNKIDDKDFVHNFKMILGGDAVLHYFDNLLPKTMKKDLKAMKYGVSLTSAYSLKLTKIIFSQMQLPYLSQMFYMQAPYFGHFIGKWQKKRQQSRLKEIMSFMTLGSLSAYTLFSAMDITQQAKDIGAGPVASCFTTRMSPPQQICLNSVVNAALSTSTQSAMKCVFSV
modifications: bait human Fc-tagged dimer; N-glycosylation sequons mutated in Plasmodium baits
binding score (ADP390): 7.2

B2: ADP247 (protein)
chain: GIISGRINIAAEFHINIFVKDYFKKKKLTFVNFVSLCPKGFNIENNKCIPCPIGLYYSNSKSINQCIPCENYRKHSTTLYNSAKSKTECLCKPGYFLKDKRCVKCVAGFYKDQIGNFKCQGTCENTKMSIEVGAKNYEELKCTCKDGYFTEKKKKECIPCPFGNYCIYNPKVKYKADIIRCKNNKLTLHRGSKSPNDCLCSQGYYHDYKMDECELCNYDQYKSHISNDPCVPFISKSLVNQEYLINEPYFQYTNIYIKQTSNIIFAPKKGSKMFHEATLCETGYSYSMNKAICSICRYNNYCLGLDHSSIICPKNSITIKLKSVSALDCLCIKGYGRIIINTNQAFTISCIPCPYNTFQPHHSYGKCIPCPPHTFTKITGATSITECIPKMGYYNIAFEYIYEYSKQQMLNSIPHFIQYYHYFLKNQYEHFA
modifications: bait human Fc-tagged dimer; N-glycosylation sequons mutated in Plasmodium baits
binding score (ADP315): 5.78
binding score (ADP323): 5.73
binding score (ADP366): 5.26
binding score (ADP368): 5.45

B3: ADP167 (protein)
chain: EFKRKQKVEINSLQTNKNNDNIREEKIKGDVESQPDVDGDTCVIFSSSEGNSRNCWCPRGYILCSEEDVLDVQGKLNEIKNKHERSLVTPLWMKRLCDNSNDVGFKSMSVVIDYELAVLCKDGSNKDYADFEIIGASGYITGEEMIEEQKRNPWYVPRKCTVNNFYLCRKVENDNVNCAYTPWSDWSACKNNAQKRYRKVRRSNQNNENFCLWNDKIVPRNIMEQTRSC
modifications: bait human Fc-tagged dimer; N-glycosylation sequons mutated in Plasmodium baits
binding score (ADP158): 19.1

B4: ADP180 (protein)
chain: RGNQISKCVFYDKRNKDLKQVFYVPTNDVNMYKETIRKLLSREISLLEEPLNENSDSHNMANKKNVANFEEIKKNDENNNRKRKEMEEKLKYIEKYRNYAKGVLKNVEFKCENVDDLKSKVKCNLCVYTEIVNNKHIRQGQIIQIFMNECMYGFYYYDNINQYTQNNEYNNKALKDYNSAQKLDDIYFNIAKDISEGNVNGINFFKQQSSKYHPVCYVTE
modifications: bait human Fc-tagged dimer; N-glycosylation sequons mutated in Plasmodium baits
binding score (ADP103): 9.97
binding score (ADP144): 20
